Data published in paper PMC9992855, “Functional polyamine metabolic enzymes and pathways encoded by the virosphere” (Proceedings of the National Academy of Sciences of the …, 2023).

Substrate: CC(=O)NCCCNCCCCN
Test: colorimetric acetate release
Type: biochemical, Mycoplana ramosa
Details: 26 °C
Excerpt: colorimetric acetate release on M. ramosa APAH

B1: M. ramosa APAH (Mycoplana ramosa) (protein)
chain: MRVIFSEDHKLRNAKTELYGGELVPPFEAPFRAEWILAAVKEAGFDDVVAPARHGLETVLKVHDAGYLNFLETAWDRWKAAGYKGEAIATSFPVRRTSPRIPTDIEGQIGYYCNAAETAISPGTWEAALSSMASAIDGADLIAAGHKAAFSLCRPPGHHAGIDMFGGYCFINNAAVAAQRLLDKGAKKIAILDVDFHHGNGTQDIFYERGDVFFASLHGDPAEAFPHFLGYAEETGKGAGAGTTANYPMGRGTPYSVWGEALTDSLKRIAAFGAEAIVVSLGVDTFEQDPISFFKLTSPDYITMGRTIAASGVPLLVVMEGGYGVPEIGLNVANVLKGVAG
notes: 341 aa; positive comparative control enzyme
Km: 630 ± 40 µM
kcat: 5.8 ± 0.14 s⁻¹
kcat/Km: 9300 ± 450 M⁻¹ s⁻¹
